{
  "source": "paper PMC11633486",
  "about": "“The Intestinal Transporter SLC30A1 Plays a Critical Role in Regulating Systemic Zinc Homeostasis” (Advanced Science, 2024)",
  "proteins": {"B1": {"name": "full-length human SLC30A1 protein (natural protein, UniProt Q9Y6M5 1-507, looked up)", "chain": "MGCWGRNRGRLLCMLALTFMFMVLEVVVSRVTSSLAMLSDSFHMLSDVLALVVALVAERFARRTHATQKNTFGWIRAEVMGALVNAIFLTGLCFAILLEAIERFIEPHEMQQPLVVLGVGVAGLLVNVLGLCLFHHHSGFSQDSGHGHSHGGHGHGHGLPKGPRVKSTRPGSSDINVAPGEQGPDQEETNTLVANTSNSNGLKLDPADPENPRSGDTVEVQVNGNLVREPDHMELEEDRAGQLNMRGVFLHVLGDALGSVIVVVNALVFYFSWKGCSEGDFCVNPCFPDPCKAFVEIINSTHASVYEAGPCWVLYLDPTLCVVMVCILLYTTYPLLKESALILLQTVPKQIDIRNLIKELRNVEGVEEVHELHVWQLAGSRIIATAHIKCEDPTSYMEVAKTIKDVFHNHGIHATTIQPEFASVGSKSSVVPCELACRTQCALKQCCGTLPQAPSGKDAEKTPAVSISCLELSNNLEKKPRRTKAENIPAVVIEIKNMPNKQPESSL", "notes": "SLC30A1 (zinc transporter 1), human, full-length cDNA with codon optimization; Homodimer in the cryo-EM structure; the C291 residues of the two protomers form a disulfide bond; also called WT SLC30A1; wild-type SLC30A1; source: HEK293F, transfected (pEZT vector), purified (Strep-Tactin beads, Superose 6 gel filtration) in LMNG/CHS"}},
  "target": "the molecule itself",
  "test": "cryo-EM structure; purified wild-type SLC30A1 at 5 mg/mL in 25 mM Tris pH 8.0, 150 mM NaCl, 0.002% LMNG, 0.0004% CHS; C2 symmetry imposed; homodimer",
  "data": [
    {"protein": "B1", "values": [
      {"measurement": "stoichiometry N", "result": 2}
    ]}
  ]
}
